Experimental data published in CN116836268A (BEIJING WISDOMAB BIOTECHNOLOGY CO LTD, dated 2023).

Target: Cov-S-RBD-His (SARS-CoV-2, UniProt P0DTC2 319-537)

B1: S4B3-mIgG2a (antibody, V domains shown)
VH: QVQLQQSGAELVKPGASVKMSCKASGYIFNSYSIHWVKKTPGQGLEWIGAIYPGNGDTSNSQRFKGKATLTADKSSSTVYMQLSRLTSEDSAVYYCARDGYDDSYGLDYWGQGTSVTVSS
VL: DIVMTQSQKFMSTSVGDRVSVTCKASQNVGTNVAWYQQKPGQSPKALIYSASYRYSGVPDRFTGSGSGTDFTLTISNVQSEDLAEYFCQQYNSYPLTFGGGTKLEIKR
- Kd: 0.0228 µM
